# Measurements reported in the supplement of paper PMC7125110.
# ± gives the standard error. For some of these results: Fewer inactive variants are shown than the library holds.
# B1: glmS ribozyme (parent)
# chain: AUAAAAGCGCCAGAACUACAGAAAUGUAGUUGACGAGGAGGAGGUUUAUCGAAUUUUCGGCGGAUGCCUCCAAA
# Assays:
# Conditions in all cases: with glucosamine-6-phosphate
# glucosamine-6-phosphate [1] = variants of: B1; experiment: kcat; higher = faster cleavage; RNA array
# Outline: (§1)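 Tracking of barcoded ribozyme variants used a hybridised Cy3 probe at 37 °C, after in situ transcription by E. coli RNA polymerase on sequenced MiSeq chips. The flowed solution held 40 μM to 10 mM glucosamine-6-phosphate in HEPES/KCl/Mg(OAc)2 buffer, and imaging ran over ~14 h. kobs was taken from exponential decay fits of normalised per-tile medians, and kcat and KM from weighted Michaelis–Menten fits.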
# glucosamine-6-phosphate [2] = variants of: B1; experiment: KM; higher = weaker cofactor use; RNA array
# Outline: as §1
# glucosamine-6-phosphate [3] = variants of: B1; experiment: self-cleavage kobs at 40 uM GlcN6P; higher = faster cleavage; RNA array
# Outline: as §1
# glucosamine-6-phosphate [4] = variants of: B1; experiment: self-cleavage kobs at 640 uM GlcN6P; higher = faster cleavage; RNA array
# Outline: as §1
# glucosamine-6-phosphate [5] = variants of: B1; experiment: self-cleavage kobs at 2500 uM GlcN6P; higher = faster cleavage; RNA array
# Outline: as §1
# glucosamine-6-phosphate [6] = variants of: B1; experiment: self-cleavage kobs at 10000 uM GlcN6P; higher = faster cleavage; RNA array
# Outline: as §1
# glucosamine-6-phosphate [7] = variants of: B1; experiment: self-cleavage kobs at 160 uM GlcN6P; higher = faster cleavage; RNA array
# Outline: as §1
Variant,kcat (glucosamine-6-phosphate [1]),KM (glucosamine-6-phosphate [2]),self-cleavage kobs at 40 uM GlcN6P (glucosamine-6-phosphate [3]),self-cleavage kobs at 640 uM GlcN6P (glucosamine-6-phosphate [4]),self-cleavage kobs at 2500 uM GlcN6P (glucosamine-6-phosphate [5]),self-cleavage kobs at 10000 uM GlcN6P (glucosamine-6-phosphate [6]),self-cleavage kobs at 160 uM GlcN6P (glucosamine-6-phosphate [7])
G9U C61G,0.000192 ± 1.7e-05 s⁻¹,2350 ± 460 µM,< 1e-05 s⁻¹,4.57e-05 ± 1.2e-05 s⁻¹,9.21e-05 ± 1.7e-05 s⁻¹,0.00016 ± 2.5e-05 s⁻¹,
C8A C61U G66A,< 1e-05 s⁻¹,,,< 1e-05 s⁻¹,< 1e-05 s⁻¹,,
U2A G29U,0.00852 ± 0.0033 s⁻¹,,0.000181 ± 3.8e-05 s⁻¹,0.00137 ± 0.00032 s⁻¹,,0.00749 ± 0.0017 s⁻¹,0.000569 ± 0.00018 s⁻¹
A6U U56A,0.000103 ± 7e-06 s⁻¹,1590 ± 350 µM,,3.39e-05 ± 1e-05 s⁻¹,5.83e-05 ± 9e-06 s⁻¹,9.06e-05 ± 9.5e-06 s⁻¹,
A6U U56G,0.000121 ± 1.2e-05 s⁻¹,1090 ± 430 µM,,3.35e-05 ± 1.5e-05 s⁻¹,9.43e-05 ± 1.2e-05 s⁻¹,0.000104 ± 1.1e-05 s⁻¹,
G9U U31C,< 1e-05 s⁻¹,,,< 1e-05 s⁻¹,,< 1e-05 s⁻¹,
G7U A52G C70G,3.01e-05 ± 9.2e-06 s⁻¹,,,,,,
G7U G66U C70G,< 1e-05 s⁻¹,,,,< 1e-05 s⁻¹,,
G9U A33U,< 1e-05 s⁻¹,,,< 1e-05 s⁻¹,,< 1e-05 s⁻¹,< 1e-05 s⁻¹
A6G U46G C68U,3.96e-05 ± 1.9e-05 s⁻¹,,,,4.82e-05 ± 2.3e-05 s⁻¹,,
C10U U47C U56G C68U U69A,< 1e-05 s⁻¹,429 ± 190 µM,,< 1e-05 s⁻¹,,< 1e-05 s⁻¹,
A6U C68A,< 1e-05 s⁻¹,,,,,,
C8U C58U C68A,2.49e-05 ± 7.3e-06 s⁻¹,,,,< 1e-05 s⁻¹,,
G9A U31A,2.13e-05 ± 6.3e-07 s⁻¹,,< 1e-05 s⁻¹,< 1e-05 s⁻¹,,,< 1e-05 s⁻¹
G7A,4.39e-05 ± 1.2e-06 s⁻¹,4040 ± 350 µM,,,1.71e-05 ± 2.6e-06 s⁻¹,3.13e-05 ± 1.1e-06 s⁻¹,
A6U G32U C50G,6.32e-05 ± 1.6e-05 s⁻¹,,,,6.04e-05 ± 1.5e-05 s⁻¹,,7.94e-05 ± 1.8e-05 s⁻¹
A6C U65G,2.87e-05 ± 1.5e-06 s⁻¹,342 ± 150 µM,,,,2.71e-05 ± 1.1e-05 s⁻¹,
G7A C70U,6.43e-05 ± 1.1e-05 s⁻¹,5580 ± 2200 µM,,,,4.14e-05 ± 7.5e-06 s⁻¹,
A6G U54A,0.000561 ± 5.2e-05 s⁻¹,1600 ± 440 µM,,0.000143 ± 5.7e-05 s⁻¹,0.000387 ± 0.00011 s⁻¹,0.000476 ± 7.7e-05 s⁻¹,
C10A A14U G59U C71G,1.42e-05 ± 3.8e-06 s⁻¹,,,,,,
C10U U30G,< 1e-05 s⁻¹,,< 1e-05 s⁻¹,< 1e-05 s⁻¹,,,< 1e-05 s⁻¹

Variant,kcat (glucosamine-6-phosphate [1]),KM (glucosamine-6-phosphate [2]),self-cleavage kobs at 40 uM GlcN6P (glucosamine-6-phosphate [3]),self-cleavage kobs at 640 uM GlcN6P (glucosamine-6-phosphate [4]),self-cleavage kobs at 2500 uM GlcN6P (glucosamine-6-phosphate [5]),self-cleavage kobs at 10000 uM GlcN6P (glucosamine-6-phosphate [6]),self-cleavage kobs at 160 uM GlcN6P (glucosamine-6-phosphate [7])
A6U U49A,< 1e-05 s⁻¹,,,,,< 1e-05 s⁻¹,< 1e-05 s⁻¹
A6U A52U,< 1e-05 s⁻¹,,,,,< 1e-05 s⁻¹,< 1e-05 s⁻¹
A6U A52G,< 1e-05 s⁻¹,,,< 1e-05 s⁻¹,,,< 1e-05 s⁻¹
C11G G37U,1.74e-05 ± 6.6e-06 s⁻¹,,< 1e-05 s⁻¹,,< 1e-05 s⁻¹,< 1e-05 s⁻¹,
C10A G38A,< 1e-05 s⁻¹,,< 1e-05 s⁻¹,,,,
A6U G35U G38C A53U A64G,< 1e-05 s⁻¹,,,,,,< 1e-05 s⁻¹
C10A A14C C71A,2.17e-05 ± 9.3e-06 s⁻¹,,,,,,
C11A U30A,0.000318 ± 4.7e-05 s⁻¹,1940 ± 600 µM,,8.58e-05 ± 1.7e-05 s⁻¹,0.000146 ± 3.4e-05 s⁻¹,0.000288 ± 4.4e-05 s⁻¹,
A6G C67U,0.000111 ± 4.4e-05 s⁻¹,,,,,8.08e-05 ± 7.3e-06 s⁻¹,
A6C G37U,< 1e-05 s⁻¹,,< 1e-05 s⁻¹,,,,
C11G C16U,< 1e-05 s⁻¹,,,,,,< 1e-05 s⁻¹
C11A A53G,0.000202 ± 9.2e-06 s⁻¹,2130 ± 240 µM,,4.47e-05 ± 1e-05 s⁻¹,0.000112 ± 1.2e-05 s⁻¹,0.000164 ± 1.8e-05 s⁻¹,
C10U U31A,2.74e-05 ± 1e-06 s⁻¹,5120 ± 380 µM,,,,,
A6U G13C C70G,2.43e-05 ± 8.6e-06 s⁻¹,,,,,,
C8U C11U C34G A36U,1.07e-05 ± 9.9e-07 s⁻¹,,,,,,< 1e-05 s⁻¹
C11G C50G,0.000265 ± 6.8e-05 s⁻¹,,6.35e-05 ± 1.4e-05 s⁻¹,0.000352 ± 7.5e-05 s⁻¹,0.000209 ± 5e-05 s⁻¹,0.000187 ± 9.3e-05 s⁻¹,0.00024 ± 4.8e-05 s⁻¹
A6U A15U,3.81e-05 ± 2.5e-06 s⁻¹,1260 ± 360 µM,,,2.31e-05 ± 8.8e-06 s⁻¹,3.44e-05 ± 7e-06 s⁻¹,
A6C U45G,< 1e-05 s⁻¹,,,,,,
A6G U47G,0.0001 ± 1.3e-05 s⁻¹,1400 ± 520 µM,< 1e-05 s⁻¹,3.81e-05 ± 1.5e-05 s⁻¹,6.1e-05 ± 1.2e-05 s⁻¹,9.1e-05 ± 1.8e-05 s⁻¹,
A6U U30A,3.27e-05 ± 4.2e-06 s⁻¹,,< 1e-05 s⁻¹,,,2.86e-05 ± 1e-05 s⁻¹,< 1e-05 s⁻¹
